Assay results from patent US5945288.

System: PmeI restriction endonuclease (Pseudomonas mendocina)
Experiment: cleavage_in_vitro
Details: column fractions assayed on lambda DNA

In the case of bacteriophage lambda DNA, the activity (units (total purified)) is reported as 116000.
